The record followed here is patent US20240166594A1, “PHOTOCAGED CITRULLINE ANALOGS AND METHODS FOR SITE-SPECIFIC INCORPORATION OF CITRULLINE INTO PROTEINS” (University of Massachusetts, priority 2021, published 2024).

Where “and” joins values, the source holds several entries; their conditions need not be identical. Equal entries are not always repeated. Where a SMILES comes first, the peptide text is derived from it.

The nature of data set [1]: Solubility of decaged peptide observed during SM70 decaging. Format: physicochemical. Particulars: decaged peptide from SM70; turbid even in 1:1 acetonitrile/PBS. Here is the method:
FIG. 10. (A) Decaging of SM70, a PAD4-derived peptide (residues 363-372 with SM60 at the 372 position. Prolines at 365 and 371 positions were replaced with W and A, respectively, and a lysine residue was added to the C-terminus for ease of synthesis.). (B) HPLC chromatogram of SM70 before and after 5 min of 365 nm irradiation. […] Even after performing the reaction in 1:1 acetonitrile/PBS, the solution became turbid upon the formation of the decaged peptide. Assay condition: 200 μM SM70, 2 mM DTT, 1:1 acetonitrile/PBS (pH 7.4). (C) ESI mass spectrum of the citrulline-containing peptide (decaged product).

Data set [2] in a line: Michaelis-Menten kinetics of wild-type and mutant PAD4 (COLDER assay). Format: biochemical. The settings on record: substrate BAEE, 10 mM CaCl2, pH 7.4, 37° C. As to the method: PAD4 (50 nM final for wild-type, 75 nM final for R372Cit, and 100 nM final for R374Cit) was added to a pre-warmed (10 min, 37° C.) reaction mixture (60 μL final) containing various concentrations of BAEE (0, 0.5, 1, 2.5, 5 and 10 mM), CaCl2 (10 mM), TRIS-HCl (100 mM, pH 7.4), NaCl (50 mM) and DTT (2 mM). This mixture was incubated at 37° C. for 45 min (for wild-type), 90 min (for R374Cit) and 120 min (for R372Cit) followed by quenching with liquid nitrogen. The rate of citrulline formation at various BAEE concentrations was quantified with the COLDER assay. The rates were plotted against the BAEE concentration and were fit to the Michaelis-Menten equation using Graphpad Prism. All the reactions were performed at least in duplicate.

Data set [3] is described as follows: Calcium-dependence of wild-type PAD4 (COLDER assay). The class given is biochemical. Particulars: 10 mM BAEE, pH 7.4, 37° C. Here is the method: PAD4Bac (purified from bacterial expression system) and PAD4Mam (purified from mammalian expression system) (6 μL of 0.5 μM stock, 50 nM final) were added to separate pre-warmed (10 min, 37° C.) reaction mixtures (60 μL final) containing BAEE (10 mM), various concentrations of CaCl2 (0, 0.25, 0.5, 1, 2.5, 5 and 10 mM), TRIS-HCl (100 mM, pH 7.4), NaCl (50 mM) and DTT (2 mM). This mixture was incubated at 37° C. for 45 min followed by flash freezing with liquid nitrogen. The production of citrulline at various concentration of CaCl2 by PAD4 was quantified with the COLDER assay. (Tanikawa, et al. 2012 Nat. Commun. 3, 676; Zhang, et al. 2012 Proc. Natl. Acad. Sci. USA 109, 13331-13336.)
The calcium-dependence of citrulline production by PAD4 was fit to the equation 2,
v=Vmax*[Ca^2+]^h/(K0.5^h+[Ca^2+]^h) (2)
using Graphpad Prism, where v is the velocity of the reaction, Vmax is the maximum velocity of the reaction, [Ca^2+] is the concentration of calcium, h is the hill slope and K0.5 is the calcium concentration that gives half-maximal velocity. All the reactions were performed at least in duplicate.

Another data set concerns histone H3. Put plainly: Histone H3 citrullination in live HEK293T cells (western blot). The class given is cell-based. The settings on record: calcium and ionomycin, 3 h. As to the method: HEK293T cells were seeded (4×10^5 cells/well) on 6-well plates and were allowed to grow in DMEM (supplemented with 10% heat-inactivated fetal bovine serum, 100 units/mL penicillin, 100 μg/mL streptomycin) for 48 h. Cells were then transfected with appropriate plasmids (3 μg PAD4 plasmid and 2 μg pIDTSMART eRF1 E55D for each well) using Lipofectamine 2000 (12.5 μg for each well) in Opti-MEM medium (Gibco). After 5 h, the medium was changed to DMEM and DMSO (for WT PAD4) or SM60 (1 mM for R374Cit PAD4) was added. Cells were then allowed to grow at 37° C. for 48 h. Cells were washed with serum-free DMEM (supplemented with 100 units/mL penicillin, […] streptomycin), resuspended in the same medium and were irradiated with 365 nm UV for 3 min. Then the cells were treated with CaCl2 (1 mM) and a combination of CaCl2 (1 mM) and ionomycin (5 μM) for 3 h at 37° C. After this, cells were lysed and the lysates were analyzed by Western blotting using anti-histone H3 citrulline (R2,8,17) and anti-histone H3 primary antibodies. PAD4 expression was quantified by using an anti-PAD4 primary antibody. Band intensities for citrullinated histone H3 were normalized against those for histone H3 and PAD4 using the following algorithm,
Normalized histone H3Cit=[H3Cit/(H3_33 PAD4)]×10^6
All the experiments were performed in triplicate.
A general note: A western blot detects proteins with antibodies after separation by electrophoresis.

Data set [4] in a line: Thermal shift assay, melting temperature of PAD4 in EXPI293F lysate. Format: physicochemical. The settings on record: no ligand. As to the method: (§1) A 50 μL reaction mixture (EXPI293F lysate containing overexpressed wild-type PAD4 (1.5 mg/mL) or R374Cit mutant (2 mg/mL), 1×PBS and DMSO (1% final)) was heated at various temperatures (25, 40, 50, 60, 65, 70, 75, 85 and 90° C.) for 5 min followed by flash freezing with liquid nitrogen. The samples were thawed and the precipitated proteins were separated by centrifugation (15000 rpm, 30 min) at 4° C. 40 μL of the supernatant was mixed with 10 μL of 5×SDS-PAGE loading dye and the mixture was boiled at 95° C. for 10 min. The proteins were separated by SDS-PAGE using a 4-20% gradient gel and the soluble fractions of PAD4 were quantitated by western blot analysis using a rabbit polyclonal anti-PAD4 antibody. This assay was also performed separately in the presence of CaCl2 (1 mM final) and a PAD4-selective ligand, GSK199 (10 μM final). For these assays, the reaction mixture was incubated with CaCl2 or GSK199 at room temperature for 5 min before heating up at different temperatures. All the reactions were performed at least in duplicate.

A further data set addresses T1, WT PAD4 (Homo sapiens, UniProt Q9UM07).
T1 construct: FLAG (N); His tag (C); expressed in transfected cells; host or cells: EXPI293F
Put plainly: Thermal shift assay with GSK199, wild-type PAD4. Format: binding. The settings on record: GSK199 10 μM, EXPI293F lysate. As to the method: as §1

The next data set relates to R374Cit PAD4. Put plainly: Thermal shift assay with GSK199, R374Cit PAD4. The class given is binding. The settings on record: GSK199 10 μM. As to the method:
as §1

In the next data set the test system is HEK293T cells. Put plainly: Cytotoxicity of PAD4 expression in HEK293T cells (CellTiter-Blue). The class given is cell-based. Here is the method: HEK293T cells were seeded (2×10^4 cells/well) on 96-well plate and were allowed to grow in DMEM (supplemented with 10% heat-inactivated fetal bovine serum, 100 units/mL penicillin, 100 μg/mL streptomycin) for 48 h. Cells were then transfected with appropriate plasmids (120 ng PAD4 plasmid and 80 ng pIDTSMART eRF1 E55D for each well) using Lipofectamine 2000 (500 ng for each well) in Opti-MEM medium (Gibco). After 5 h, the medium was changed to DMEM and DMSO (for WT PAD4) or SM60 (0.25, […] and 1 mM for R374Cit PAD4) was added. Cells were then allowed to grow at 37° C. for 48 h. Cell viability was measured before and after photodecaging (by UV treatment for 3 min) using CellTiter-Blue® (Promega) by following the manufacturer's protocol. Untransfected cells served as the control. All the experiments were performed in triplicate.

T1 sequence (Q9UM07 whole entry G112A): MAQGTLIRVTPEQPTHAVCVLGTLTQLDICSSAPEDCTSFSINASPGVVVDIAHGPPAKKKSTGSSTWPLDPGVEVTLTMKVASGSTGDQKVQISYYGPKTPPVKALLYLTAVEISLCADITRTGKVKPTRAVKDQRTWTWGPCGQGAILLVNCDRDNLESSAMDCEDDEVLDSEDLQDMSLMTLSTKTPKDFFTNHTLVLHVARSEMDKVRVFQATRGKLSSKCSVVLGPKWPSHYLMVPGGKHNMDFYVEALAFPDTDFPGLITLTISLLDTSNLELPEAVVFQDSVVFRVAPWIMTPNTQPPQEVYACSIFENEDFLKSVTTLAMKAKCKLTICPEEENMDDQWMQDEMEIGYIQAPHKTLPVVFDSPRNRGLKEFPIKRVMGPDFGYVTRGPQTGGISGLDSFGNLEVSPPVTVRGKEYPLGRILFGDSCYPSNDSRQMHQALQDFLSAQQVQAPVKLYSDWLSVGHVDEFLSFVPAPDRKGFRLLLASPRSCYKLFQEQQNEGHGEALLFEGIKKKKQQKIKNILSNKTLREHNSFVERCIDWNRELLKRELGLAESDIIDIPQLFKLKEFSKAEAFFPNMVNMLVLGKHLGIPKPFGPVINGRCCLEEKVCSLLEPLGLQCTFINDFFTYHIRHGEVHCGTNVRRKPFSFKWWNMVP

On to `CC(C)C[C@H](NC(=O)[C@@H](N)[C@@H](C)O)C(=O)N[C@@H](Cc1c[nH]c2ccccc12)C(=O)N[C@H](C(=O)N[C@H](C(=O)N[C@@H](Cc1ccccc1)C(=O)N[C@@H](CC(=O)O)C(=O)N[C@@H](CO)C(=O)N[C@@H](C)C(=O)N[C@@H](CCCNC(N)=O)C(=O)N[C@@H](CCCCN)C(=O)O)C(C)C)C(C)C` [decaged product] (HELM PEPTIDE1{T.L.W.V.V.F.D.S.A.[Cit].K}$$$$V2.0), for which, in data set [1], the “solubility in aqueous buffer” value is “extremely low solubility in aqueous buffer”.
The Km is the concentration of substrate that gives half-maximal velocity. Consider “PAD4Bac: wild-type PAD4 purified from bacterial (E. coli) expression system”, for which, in data set [2], the Km was determined as 700 ± 100 µM and the kcat is listed as 3.4 ± 0.2 S^−1. In addition, the “K0.5 (Ca^2+ concentration for half-maximal activity)” value in data set [3] was 0.9 mM and 0.9 ± 0.10 mM.
Consider “WT PAD4: wild-type Protein Arginine Deiminase 4”, for which the “times more active than the R374Cit mutant for the citrullination of histone H3” value with histone H3 is recorded as 6 times. The “melting temperature (Tm)” value in data set [4] amounted to 62.9 °C.
Take `CCn1c(-c2nc3cc(C(=O)N4CCCC(N)C4)cc(OC)c3n2C)cc2cccnc21` (stereo not shown) [GSK199]: the “effect on Tm of WT PAD4” value at WT PAD4 is on record as “increased the Tm of WT PAD4”. Besides, the “effect on Tm of R374Cit PAD4” value in the data set on R374Cit PAD4 (EXPI293F lysate) was “did not increase the Tm of the R374Cit mutant”. The “binding to R374Cit mutant” value in the data set on R374Cit PAD4 (inferred from thermal shift) was “binds poorly to the R374Cit mutant”.
On to “PAD4Mam: wild-type PAD4 purified from mammalian expression system (HEK293T), N-terminal FLAG and C-terminal His tag”, for which, in data set [2], the Michaelis constant (Km) is 1100 ± 200 µM and the kcat amounted to 3.7 ± 0.1 S^−1. The “K0.5 (Ca^2+ concentration for half-maximal activity)” value in data set [3] was 0.9 mM and 0.9 ± 0.05 mM.
As for “PAD4: Protein Arginine Deiminase 4 (WT and R374Cit) overexpressed in HEK293T cells”, the cytotoxicity of expression result with HEK293T cells is recorded as “does not cause any cytotoxicity”.
